Experimental data as given in IntAct's records for PubMed 28533443.

B1: Complement factor H-related protein 1 (Homo sapiens), Q03591 (parent)
chain: MWLLVSVILISRISSVGGEATFCDFPKINHGILYDEEKYKPFSQVPTGEVFYYSCEYNFVSPSKSFWTRITCTEEGWSPTPKCLRLCFFPFVENGHSESSGQTHLEGDTVQIICNTGYRLQNNENNISCVERGWSTPPKCRSTDTSCVNPPTVQNAHILSRQMSKYPSGERVRYECRSPYEMFGDEEVMCLNGNWTEPPQCKDSTGKCGPPPPIDNGDITSFPLSVYAPASSVEYQCQNLYQLEGNKRITCRNGQWSEPPKCLHPCVISREIMENYNIALRWTAKQKLYLRTGESAEFVCKRGYRLSSRSHTLRTTCWDGKLEYPTCAKR
partner: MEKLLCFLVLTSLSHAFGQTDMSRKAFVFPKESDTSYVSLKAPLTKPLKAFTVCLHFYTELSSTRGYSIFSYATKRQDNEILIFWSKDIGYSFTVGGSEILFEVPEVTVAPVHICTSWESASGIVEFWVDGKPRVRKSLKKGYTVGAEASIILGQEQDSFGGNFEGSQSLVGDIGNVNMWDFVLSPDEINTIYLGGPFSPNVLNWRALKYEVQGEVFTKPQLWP

Variants of: B1
Conditions: with crp_human CRP
For H157Y;L159V;E175Q, the “effect of a mutation on the interaction” value was “with no effect”.
